Patent US20210388087A1 (Chugai, published 2021)
Numbering of substitutions follows the chain as printed.

B1: H183/L072 VL P56N (antibody, name in Kabat numbering, V domains shown)
VH: QVQLVESGGGLVQPGRSLRLSCAASGFTFSNAWMHWVRQAPGKGLEWVAQIKDKGNAYAAYYAPSVKGRFTISRDDSKNSIYLQMNSLKTEDTAVYYCHYVHYASASTVLPAFGVDAWGQGTTVTVSS
VL: DIVMTQSPLSLPVTPGEPASISCQASQELVHMNRNTYLHWYQQKPGQAPRLLIYKVSNRFNGVPDRFSGSGSGTDFTLKISRVEAEDVGVYYCAQGTSVPFTFGQGTKLEIK
notes: Dual-Ig
B2: H183/L072 VL P95H (antibody, name in Kabat numbering, V domains shown)
VH: B1 VH
VL: B1 VL with N61P, P100H
notes: Dual-Ig
B3: H183/L072 VL P95V (antibody, name in Kabat numbering, V domains shown)
VH: B1 VH
VL: B1 VL with N61P, P100V
notes: Dual-Ig
B4: H183/L072 VL Q24K (antibody, name in Kabat numbering, V domains shown)
VH: B1 VH
VL: B1 VL with Q24K, N61P
notes: Dual-Ig
B5: H183/L072 VL P95A (antibody, name in Kabat numbering, V domains shown)
VH: B1 VH
VL: B1 VL with N61P, P100A
notes: Dual-Ig
B6: H183/L072 VL Q24N (antibody, name in Kabat numbering, V domains shown)
VH: B1 VH
VL: B1 VL with Q24N, N61P
notes: Dual-Ig
B7: H183/L072 VL Q24D (antibody, name in Kabat numbering, V domains shown)
VH: B1 VH
VL: B1 VL with Q24D, N61P
notes: Dual-Ig
B8: H183/L072 VL Q27G (antibody, name in Kabat numbering, V domains shown)
VH: B1 VH
VL: B1 VL with Q27G, N61P
notes: Dual-Ig
B9: H183/L072 VL P56V (antibody, name in Kabat numbering, V domains shown)
VH: B1 VH
VL: B1 VL with N61V
notes: Dual-Ig
B10: H183/L072 VL P56R (antibody, name in Kabat numbering, V domains shown)
VH: B1 VH
VL: B1 VL with N61R
notes: Dual-Ig
B11: H183/L072 VL Q24G (antibody, name in Kabat numbering, V domains shown)
VH: B1 VH
VL: B1 VL with Q24G, N61P
notes: Dual-Ig
B12: H183/L072 VL P95K (antibody, name in Kabat numbering, V domains shown)
VH: B1 VH
VL: B1 VL with N61P, P100K
notes: Dual-Ig
B13: H183/L072 VL P56W (antibody, name in Kabat numbering, V domains shown)
VH: B1 VH
VL: B1 VL with N61W
notes: Dual-Ig
B14: H183/L072 VL Q27D (antibody, name in Kabat numbering, V domains shown)
VH: B1 VH
VL: B1 VL with Q27D, N61P
notes: Dual-Ig
B15: H183/L072 VL P95N (antibody, name in Kabat numbering, V domains shown)
VH: B1 VH
VL: B1 VL with N61P, P100N
notes: Dual-Ig
B16: H183/L072 VL Q24S (antibody, name in Kabat numbering, V domains shown)
VH: B1 VH
VL: B1 VL with Q24S, N61P
notes: Dual-Ig
B17: H183/L072 VL P56Q (antibody, name in Kabat numbering, V domains shown)
VH: B1 VH
VL: B1 VL with N61Q
notes: Dual-Ig
B18: H183/L072 VL Q27F (antibody, name in Kabat numbering, V domains shown)
VH: B1 VH
VL: B1 VL with Q27F, N61P
notes: Dual-Ig
B19: H183/L072 VL P95S (antibody, name in Kabat numbering, V domains shown)
VH: B1 VH
VL: B1 VL with N61P, P100S
notes: Dual-Ig
B20: H183/L072 VL P95M (antibody, name in Kabat numbering, V domains shown)
VH: B1 VH
VL: B1 VL with N61P, P100M
notes: Dual-Ig
B21: H183/L072 VL Q24H (antibody, name in Kabat numbering, V domains shown)
VH: B1 VH
VL: B1 VL with Q24H, N61P
notes: Dual-Ig
B22: H183/L072 VL P95Q (antibody, name in Kabat numbering, V domains shown)
VH: B1 VH
VL: B1 VL with N61P, P100Q
notes: Dual-Ig
B23: H183/L072 VL P95D (antibody, name in Kabat numbering, V domains shown)
VH: B1 VH
VL: B1 VL with N61P, P100D
notes: Dual-Ig
B24: H183/L072 VL Q24R (antibody, name in Kabat numbering, V domains shown)
VH: B1 VH
VL: B1 VL with Q24R, N61P
notes: Dual-Ig
B25: H183/L072 VL P95W (antibody, name in Kabat numbering, V domains shown)
VH: B1 VH
VL: B1 VL with N61P, P100W
notes: Dual-Ig
B26: H183/L072 VL P56T (antibody, name in Kabat numbering, V domains shown)
VH: B1 VH
VL: B1 VL with N61T
notes: Dual-Ig
B27: H183/L072 VL Q27E (antibody, name in Kabat numbering, V domains shown)
VH: B1 VH
VL: B1 VL with Q27E, N61P
notes: Dual-Ig
B28: H183/L072 VL Q24V (antibody, name in Kabat numbering, V domains shown)
VH: B1 VH
VL: B1 VL with Q24V, N61P
notes: Dual-Ig
B29: H183/L072 VL P95R (antibody, name in Kabat numbering, V domains shown)
VH: B1 VH
VL: B1 VL with N61P, P100R
notes: Dual-Ig
B30: H183/L072 VL Q24A (antibody, name in Kabat numbering, V domains shown)
VH: B1 VH
VL: B1 VL with Q24A, N61P
notes: Dual-Ig
B31: H183/L072 VL P95E (antibody, name in Kabat numbering, V domains shown)
VH: B1 VH
VL: B1 VL with N61P, P100E
notes: Dual-Ig
B32: H183/L072 VL Q27A (antibody, name in Kabat numbering, V domains shown)
VH: B1 VH
VL: B1 VL with Q27A, N61P
notes: Dual-Ig
B33: H183/L072 VL Q24M (antibody, name in Kabat numbering, V domains shown)
VH: B1 VH
VL: B1 VL with Q24M, N61P
notes: Dual-Ig
B34: H183/L072 VL Q24I (antibody, name in Kabat numbering, V domains shown)
VH: B1 VH
VL: B1 VL with Q24I, N61P
notes: Dual-Ig
B35: H183/L072 VL Q24F (antibody, name in Kabat numbering, V domains shown)
VH: B1 VH
VL: B1 VL with Q24F, N61P
notes: Dual-Ig
B36: H183/L072 VL Q24T (antibody, name in Kabat numbering, V domains shown)
VH: B1 VH
VL: B1 VL with Q24T, N61P
notes: Dual-Ig
B37: H183/L072 VL P95F (antibody, name in Kabat numbering, V domains shown)
VH: B1 VH
VL: B1 VL with N61P, P100F
notes: Dual-Ig
B38: H183/L072 VL P95I (antibody, name in Kabat numbering, V domains shown)
VH: B1 VH
VL: B1 VL with N61P, P100I
notes: Dual-Ig
B39: H183/L072 VL P56S (antibody, name in Kabat numbering, V domains shown)
VH: B1 VH
VL: B1 VL with N61S
notes: Dual-Ig
B40: H183/L072 VL Q24P (antibody, name in Kabat numbering, V domains shown)
VH: B1 VH
VL: B1 VL with Q24P, N61P
notes: Dual-Ig
B41: H183/L072 VL P95G (antibody, name in Kabat numbering, V domains shown)
VH: B1 VH
VL: B1 VL with N61P, P100G
notes: Dual-Ig
B42: H183/L072 VL P95L (antibody, name in Kabat numbering, V domains shown)
VH: B1 VH
VL: B1 VL with N61P, P100L
notes: Dual-Ig
B43: H183/L072 VL Q24W (antibody, name in Kabat numbering, V domains shown)
VH: B1 VH
VL: B1 VL with Q24W, N61P
notes: Dual-Ig
B44: H183/L072 VL Q24L (antibody, name in Kabat numbering, V domains shown)
VH: B1 VH
VL: B1 VL with Q24L, N61P
notes: Dual-Ig
B45: H183/L072 VL P95T (antibody, name in Kabat numbering, V domains shown)
VH: B1 VH
VL: B1 VL with N61P, P100T
notes: Dual-Ig
B46: H183/L072 VL Q24Y (antibody, name in Kabat numbering, V domains shown)
VH: B1 VH
VL: B1 VL with Q24Y, N61P
notes: Dual-Ig

Target: T1, Human CD137 ECD (human)
T1 construct: entry includes C-terminal His-tag and biotin acceptor peptide; also called human CD137 extracellular domain; 4-1BB
Test: Biacore SPR, vs parent H183/L072

T1 sequence (chain, as listed by the source limits assumed): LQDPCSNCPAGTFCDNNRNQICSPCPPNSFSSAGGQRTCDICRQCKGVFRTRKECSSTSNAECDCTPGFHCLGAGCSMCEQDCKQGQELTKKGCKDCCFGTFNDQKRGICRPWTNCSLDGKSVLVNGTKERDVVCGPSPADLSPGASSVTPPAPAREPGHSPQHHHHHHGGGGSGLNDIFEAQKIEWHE

In order of falling “fold change of affinity” value:
1. B4  1 fold
2. B11  1 fold
3. B16  1 fold
4. B21  1 fold
5. B27  1 fold
6. B30  1 fold
7. B32  1 fold
8. B33  1 fold
9. B36  1 fold
10. B43  1 fold
11. B6  0.9 fold
12. B7  0.9 fold
13. B8  0.9 fold
14. B14  0.9 fold
15. B24  0.9 fold
16. B28  0.9 fold
17. B34  0.9 fold
18. B35  0.9 fold
19. B44  0.9 fold
20. B46  0.9 fold
21. B18  0.6 fold
22. B1  0.2 fold
23. B17  0.2 fold
24. B26  0.2 fold
25. B39  0.1 fold
26. B2  0 fold
27. B3  0 fold
28. B5  0 fold
29. B9  0 fold
30. B10  0 fold
31. B12  0 fold
32. B13  0 fold
33. B15  0 fold
34. B19  0 fold
35. B20  0 fold
36. B22  0 fold
37. B23  0 fold
38. B25  0 fold
39. B29  0 fold
40. B31  0 fold
41. B37  0 fold
42. B38  0 fold
43. B40  0 fold
44. B41  0 fold
45. B42  0 fold
46. B45  0 fold
